What was measured:
[1] = biological target: Human opioid receptor subtype µ (human) (UniProt P35372); assay: cell-based or functional assay
[2] = biological target: Human opioid receptor subtype δ2 (human) (UniProt P41143); assay: cell-based or functional assay
Human opioid receptor subtype δ2 (human), sequence (P41143 whole entry, stated change not applied): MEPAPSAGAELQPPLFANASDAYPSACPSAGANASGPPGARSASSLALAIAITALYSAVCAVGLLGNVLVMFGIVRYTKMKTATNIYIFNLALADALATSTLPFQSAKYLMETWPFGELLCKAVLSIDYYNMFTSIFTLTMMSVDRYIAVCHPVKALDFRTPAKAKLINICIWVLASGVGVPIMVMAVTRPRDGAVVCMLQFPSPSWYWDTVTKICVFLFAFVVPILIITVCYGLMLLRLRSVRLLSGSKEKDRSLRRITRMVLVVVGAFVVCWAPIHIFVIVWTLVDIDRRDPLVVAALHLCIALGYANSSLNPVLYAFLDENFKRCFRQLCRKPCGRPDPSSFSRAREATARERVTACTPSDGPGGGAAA

Human opioid receptor subtype µ (human), sequence (P35372 whole entry): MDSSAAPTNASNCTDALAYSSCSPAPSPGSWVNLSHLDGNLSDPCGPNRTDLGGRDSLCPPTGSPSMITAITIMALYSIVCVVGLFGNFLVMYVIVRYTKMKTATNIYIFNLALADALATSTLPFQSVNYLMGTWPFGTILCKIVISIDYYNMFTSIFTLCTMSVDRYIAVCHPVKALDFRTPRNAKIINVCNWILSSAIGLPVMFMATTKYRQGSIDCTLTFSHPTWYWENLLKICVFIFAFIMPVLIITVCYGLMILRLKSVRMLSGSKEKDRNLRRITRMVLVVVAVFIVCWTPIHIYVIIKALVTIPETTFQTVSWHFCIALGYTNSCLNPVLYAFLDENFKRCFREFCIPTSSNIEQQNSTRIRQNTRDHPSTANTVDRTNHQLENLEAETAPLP

dynorphin A (from UniProt P01213 207-223) (peptide)
increase in basal level fluorescence (binding of BODIPY-FL-GTPγS to receptor arrays) [1]: 2.5 fold
increase in basal level fluorescence (binding of BODIPY-FL-GTPγS to receptor arrays) [2]: 10 fold

Source: US20020094544A1
